Data on two substances can be found in US20230312675A1.

Holding throughout (assay): cell-based or functional assay
In assay [1] the target is EGFR on human cell lines (A431, T98G, LN18, U87, U87high, HRCE) (human) (UniProt P00533).
Assay [2] addresses Truncated EGFR (human EGFR containing only extracellular and transmembrane domains) (human) (UniProt P00533).
The target of assay [3] is truncated CD19 on EL4 cells (UniProt P15391).

Where only a bound is given, the exact number is not on record here.

UniProt P15391, sequence (P15391 20-333 limits assumed): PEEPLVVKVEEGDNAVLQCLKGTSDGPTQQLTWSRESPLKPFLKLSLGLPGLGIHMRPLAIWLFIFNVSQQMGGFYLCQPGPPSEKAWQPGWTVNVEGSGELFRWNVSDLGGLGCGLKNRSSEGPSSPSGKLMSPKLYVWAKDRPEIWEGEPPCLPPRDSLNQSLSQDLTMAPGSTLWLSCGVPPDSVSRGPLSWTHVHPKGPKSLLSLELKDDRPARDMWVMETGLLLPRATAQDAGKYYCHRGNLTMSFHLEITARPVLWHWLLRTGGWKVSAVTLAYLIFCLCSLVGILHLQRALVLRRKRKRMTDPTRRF

As to Cetuximab-derived CAR, in assay [1], the percent CAR remaining on T-cell surface after 12 hours of co-culture with U87 came to 68%, the percent CAR remaining on T-cell surface after 12 hours of co-culture with U87high was found to be 37.4%, the percent CAR remaining on T-cell surface after 48 hours of co-culture with U87 was 95.5% and the percent CAR remaining on T-cell surface after 48 hours of co-culture with U87high turned out to be 42.6%. For the same substance, in assay [1], the reduction in U87 cell number relative to controls grown without CAR+ T cells worked out at 40%; the reduction in U87high cell number relative to controls grown without CAR+ T cells worked out at 80%; the specific lysis of HRCE, 10:1 E:T ratio stood at 81.1%; the specific lysis of HRCE, DNA-modified T cells, 10:1 E:T ratio, 24 hrs worked out at 45.5%. Besides, in assay [1], the specific lysis of HRCE, DNA-modified T cells, 10:1 E:T ratio, 120 hrs turned out to be 51.6%; the specific lysis of HRCE, RNA-modified T cells, 10:1 E:T ratio, 24 hrs is 39.5%; the specific lysis of HRCE, RNA-modified T cells, 10:1 E:T ratio, 120 hrs turned out to be 19.8%. Moreover, in assay [2], the numeric expansion of CAR+ T cells over 28 days of co-culture with tEGFR+ K562 aAPC turned out to be 1000 fold; the production of IFN-γ in response to tEGFR+ EL4, DNA-modified T cells, 24 hour time point amounted to 40.3%; the production of IFN-γ in response to tEGFR+ EL4, DNA-modified T cells, 120 hour time point is 48.6%; the production of IFN-γ in response to tEGFR+ EL4, RNA-modified T cells, 24 hours after RNA transfer was 14.2%. In assay [2], the production of IFN-γ in response to tEGFR+ EL4, RNA-modified T cells, 120 hours after RNA transfer is 1.1%; the proportion of tEGFR+ EL4 in 1:1 co-culture with CAR+ T cells after 5 days is below 10%; the specific lysis of tEGFR+ EL4 worked out at 57.5%. This substance also gave a specific lysis of CD19+ EL4 (non-specific target) in assay [3] of 17.3%.

In the case of Nimotuzumab-derived CAR, in assay [1], the percent CAR remaining on T-cell surface after 12 hours of co-culture with U87 stood at 126%, the percent CAR remaining on T-cell surface after 12 hours of co-culture with U87high worked out at 124%, the percent CAR remaining on T-cell surface after 48 hours of co-culture with U87 was 94.4% and the percent CAR remaining on T-cell surface after 48 hours of co-culture with U87high is 95.7%. Besides, in assay [1], the reduction in U87high cell number relative to controls grown without CAR+ T cells is 80% and the specific lysis of HRCE, 10:1 E:T ratio was 30.4%. In assay [2], this substance displayed a numeric expansion of CAR+ T cells over 28 days of co-culture with tEGFR+ K562 aAPC of 1000 fold, a proportion of tEGFR+ EL4 in 1:1 co-culture with CAR+ T cells after 5 days of 80% and a specific lysis of tEGFR+ EL4 of 21.2%. The specific lysis of CD19+ EL4 (non-specific target) in assay [3] is 12.3%.
